Assay results taken from US20190211092A1 (NATIONAL UNIVERSITY CORPORATION TOKYO MEDICAL AND DENTAL …, published 2019).

Target: T1, GST-fusion HMGB1 protein (Wister rat HMGB1, full length, expressed from pGEX-3X) (rat (Wister), UniProt P63159 2-215)
T1 construct: mature; GST served as the negative control protein in screening; also called HMGB1 solid-phase plate; not shown: glutathione S-transferase (GST) tag of the pGEX-3X vector
T1 sequence (looked up): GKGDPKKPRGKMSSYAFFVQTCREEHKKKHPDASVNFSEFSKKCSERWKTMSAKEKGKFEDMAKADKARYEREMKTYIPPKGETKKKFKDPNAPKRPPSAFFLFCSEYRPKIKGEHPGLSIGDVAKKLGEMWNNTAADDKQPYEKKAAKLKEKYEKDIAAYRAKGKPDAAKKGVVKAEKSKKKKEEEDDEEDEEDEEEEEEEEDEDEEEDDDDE
Test: ELISA on GST-fusion HMGB1 and SPR (FIGS. 1A and 1B)
Description: Then, to select anti-HMGB1 monoclonal antibodies, the ELISA method was carried out as described below. First, part of the culture solution after 2 weeks was sampled and added in […] to a microplate in which 250 ng/well of the HMGB1 protein or the negative control protein (GST) was immobilized. Subsequently, reaction was carried out at room temperature for 1 hour, followed by washing with PBS three times. A secondary antibody (HRP-labeled anti-mouse IgG, manufactured by MEDICAL & BIOLOGICAL LABORATORIES CO., LTD., code number 330) was diluted in accordance with the package insert and added in 50 μL/well, which was reacted for one hour at room temperature, followed by washing with PBS three times after the reaction. Thereafter, a TMB reagent (MOSS, Inc., Chicago, Ill., USA, USA) was added in 50 μL/well, followed by enzyme chromogenic reaction for 15 minutes. Subsequently, after the enzyme reaction was stopped with 1.5 N phosphoric acid, the absorbance was measured with a plate reader with 450 nm (reference 630 nm) to select clones that reacts specifically with the HMGB1 solid-phase plate, establishing anti-HMGB1 monoclonal antibodies.

B1: anti-HMGB1 monoclonal antibody (2C8C) (antibody, V domains shown)
VH: QVQLQQSGPELVKPGASVKLSCKASGYTFTDYTIHWVKQSPGQGLEWIGWIYPGSGNTKYNDKFKGKATMTADKSSSTAYMQLSSLTSEDSAVYFCARGFAYWGQGTLVTVSA
VL: DIVLTQSPATLSVTPGDSVSLSCRASQSISNNLHWYQQKSHESPRLLIKYASQSISGIPSRFSGSGSGTDFTLSINSVETEDFGMYFCQQTNSWPLTFGAGTKLELK
notes: also called 2C8C antibody; clone 2C8C
B1: binds.
